For 4 sequences, activity (% mutant offspring) results are on record in patent publication US20160215297.

Assay in all cases: cell_activity
Data set [1] has as its system Il2rg ZFN left (synthetic construct). Particulars: pair with ZFN right; mRNA electroporated into rat zygotes, 3/4 offspring; Surveyor assay positive in rat fibroblasts; 37% and 73% in Tests 5-1 and 5-2.
Data set [2] relates to Il2rg ZFN right (synthetic construct). Particulars: pair with ZFN left; mRNA electroporated into rat zygotes, 3/4 offspring; Surveyor assay positive in rat fibroblasts; 37% and 73% in Tests 5-1 and 5-2.
Data set [3] relates to Il2rg TALEN left (synthetic construct). The following applies: pair with TALEN right; mRNA electroporated into rat zygotes, 3/17 offspring; Surveyor assay positive in rat fibroblasts.
For data set [4], the system named is Il2rg TALEN right (synthetic construct). The following applies: pair with TALEN left; mRNA electroporated into rat zygotes, 3/17 offspring; Surveyor assay positive in rat fibroblasts.

Turning to “GCATAGTGAGGTTGG (double strand) [Il2rg ZFN left binding site]”, in data set [1], the activity (% mutant offspring) is 75.

In data set [2], “GGTATGAGAAGGGGG (double strand) [Il2rg ZFN right binding site]” had an activity (% mutant offspring) of 75. Turning to “TCCCAGAGGTTCAATGCT (double strand) [Il2rg TALEN left binding site]”, in data set [3], the activity (% mutant offspring) amounted to 18.

In turn, “TCCAAGTGCAATTCATATACT (double strand) [Il2rg TALEN right binding site]” showed an activity (% mutant offspring) in data set [4] of 18.
